Source: paper PMC2194224

Target: purified M22 (Sir22) protein (Streptococcus pyogenes)
Experiment: radioligand binding

human C4b-binding protein (C4BP) (from UniProt P04003 49-597; P20851 18-252) (complex)
percent of radiolabeled ligand bound in the absence of antiserum: 25%
